For three substances, Kd results are on record in PMC3166367.

Assay [1] concerns the target VE-cadherin (Homo sapiens) (UniProt P33151). Briefly: SPR. Conditions: cited from earlier work.
Assay [2] deals with VE-cad(3) fragment (residues Phe210-Phe325), third domain of the extracellular portion of VE-cadherin. Briefly: SPR.
Assay [3] deals with dimeric (β15-44)2 fragment (β15-42 with Cys43 and Gly44 added, dimerized through Cys43). Briefly: ELISA.

Sequence of VE-cadherin (Homo sapiens) (P33151 48-599): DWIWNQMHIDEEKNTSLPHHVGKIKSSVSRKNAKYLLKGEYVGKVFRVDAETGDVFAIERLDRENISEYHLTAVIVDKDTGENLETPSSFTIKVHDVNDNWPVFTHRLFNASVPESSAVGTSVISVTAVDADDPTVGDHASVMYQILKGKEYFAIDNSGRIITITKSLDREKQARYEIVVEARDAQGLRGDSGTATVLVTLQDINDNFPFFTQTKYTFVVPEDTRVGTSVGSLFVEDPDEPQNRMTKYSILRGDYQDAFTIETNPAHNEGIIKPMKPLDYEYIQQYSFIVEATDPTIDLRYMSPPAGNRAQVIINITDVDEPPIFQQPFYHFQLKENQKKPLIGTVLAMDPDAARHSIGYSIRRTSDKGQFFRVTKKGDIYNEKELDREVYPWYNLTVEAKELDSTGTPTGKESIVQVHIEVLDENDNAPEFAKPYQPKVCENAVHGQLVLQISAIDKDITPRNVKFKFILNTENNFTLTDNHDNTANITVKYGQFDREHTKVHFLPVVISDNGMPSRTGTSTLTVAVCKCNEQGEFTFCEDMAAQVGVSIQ

For “fibrin fragment (β15-66)2 15-66 (from UniProt P02675)”, in assay [1], the Kd was 80 nM.
Consider “dimeric (β15-44)2 fragment (β15-42 with Cys43 and Gly44 added, dimerized through Cys43) (peptide)”, for which the Kd in assay [2] worked out at 715 nM.
In turn, “VE-cad(3) fragment (residues Phe210-Phe325), third domain of the extracellular portion of VE-cadherin (domain or fragment)” gave a dissociation constant Kd in assay [3] of 146 nM.
